Laboratory results as given in patent US20230235000A1.

Target: recombinant mutant SOD1-G93A (His-tag) (human) (UniProt P00441)
Experiment: cell-based or functional assay

Sequence of recombinant mutant SOD1-G93A (His-tag) (human) (P00441 whole entry, stated change not applied): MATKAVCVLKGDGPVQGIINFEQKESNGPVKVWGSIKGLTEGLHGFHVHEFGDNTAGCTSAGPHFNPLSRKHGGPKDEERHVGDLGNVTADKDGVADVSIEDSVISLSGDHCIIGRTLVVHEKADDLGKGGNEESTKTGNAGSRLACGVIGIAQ

## recombinant human FAIM-S (His-tag) (from UniProt Q9NVQ4 1-179)
  filter trap density of pre-aggregated SOD1 G93A after 8 µM FAIM for 2.5 hr (fraction of buffer control): 0.5
